# Assay results reported in patent US20130252983.
# How the values were obtained:
# [1] = system: GAC (S103A), phospho-defective mutant of mouse glutaminase C
# [2] = system: GACΔC, C-terminal truncation mutant of mouse glutaminase C
# [3] = system: V5-tagged wild-type mouse glutaminase C (GAC)
# Chain of V5-tagged wild-type mouse glutaminase C (GAC) (chain, as listed by the source): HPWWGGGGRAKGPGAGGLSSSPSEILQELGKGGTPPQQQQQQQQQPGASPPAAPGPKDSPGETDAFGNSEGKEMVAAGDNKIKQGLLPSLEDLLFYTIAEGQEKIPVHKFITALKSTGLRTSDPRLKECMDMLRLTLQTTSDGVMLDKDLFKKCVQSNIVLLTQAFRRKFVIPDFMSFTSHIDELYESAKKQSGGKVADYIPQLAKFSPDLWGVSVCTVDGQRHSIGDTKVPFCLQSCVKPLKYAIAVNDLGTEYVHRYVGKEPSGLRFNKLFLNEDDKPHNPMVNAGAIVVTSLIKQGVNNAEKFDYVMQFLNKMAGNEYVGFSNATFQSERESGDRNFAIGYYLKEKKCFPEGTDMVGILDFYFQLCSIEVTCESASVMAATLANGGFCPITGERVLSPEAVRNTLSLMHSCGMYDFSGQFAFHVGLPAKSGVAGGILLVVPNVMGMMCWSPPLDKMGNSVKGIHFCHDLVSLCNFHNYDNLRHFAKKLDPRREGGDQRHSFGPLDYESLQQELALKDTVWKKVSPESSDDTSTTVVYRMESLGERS
# Chain of GACΔC, C-terminal truncation mutant of mouse glutaminase C (chain, as listed by the source mutant): as the sequence (chain, as listed by the source) above
# Chain of GAC (S103A), phospho-defective mutant of mouse glutaminase C (chain, as listed by the source S103A): as the sequence (chain, as listed by the source) above, with S49A counted along it
substance,measurement,setting,value
mTOR (mammalian target of rapamycin),phosphorylation of proteins immunoprecipitated with GAC after addition of radio-labeled ATP under conditions favorable for the activation of the mTOR kinase,[1],but not for proteins immunoprecipitated with GAC (S103A)
same,phosphorylation of proteins immunoprecipitated with GAC after addition of radio-labeled ATP under conditions favorable for the activation of the mTOR kinase,[2],the phosphorylation of proteins immunoprecipitated with wild-type GAC and GACΔC is observed
same,phosphorylation of proteins immunoprecipitated with GAC after addition of radio-labeled ATP under conditions favorable for the activation of the mTOR kinase,[3],the phosphorylation of proteins immunoprecipitated with wild-type GAC and GACΔC is observed
